Paper doi:10.1101/2022.01.27.478073 (bioRxiv, 2022)

Molecular target: T1, His-AtNRT1.4 (Arabidopsis, UniProt Q9SZY4 1-577)
T1 sequence (looked up): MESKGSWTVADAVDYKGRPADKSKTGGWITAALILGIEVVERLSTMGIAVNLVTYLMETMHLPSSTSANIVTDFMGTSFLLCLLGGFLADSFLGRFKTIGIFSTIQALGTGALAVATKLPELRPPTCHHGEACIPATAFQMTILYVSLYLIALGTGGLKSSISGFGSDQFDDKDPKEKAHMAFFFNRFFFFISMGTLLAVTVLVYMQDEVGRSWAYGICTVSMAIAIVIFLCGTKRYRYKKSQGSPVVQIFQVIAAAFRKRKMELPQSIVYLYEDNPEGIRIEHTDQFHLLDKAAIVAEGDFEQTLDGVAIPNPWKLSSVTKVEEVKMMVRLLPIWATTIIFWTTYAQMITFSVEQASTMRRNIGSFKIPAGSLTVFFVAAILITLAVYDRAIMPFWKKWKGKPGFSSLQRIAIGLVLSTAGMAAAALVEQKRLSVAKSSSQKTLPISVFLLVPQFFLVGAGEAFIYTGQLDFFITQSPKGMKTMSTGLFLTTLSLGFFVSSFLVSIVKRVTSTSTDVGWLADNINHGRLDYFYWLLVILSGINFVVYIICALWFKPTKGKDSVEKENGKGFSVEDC
Experiment: pull-down

- binding result: binds
B1: GST-AtGPA1 (natural protein, Arabidopsis, UniProt P18064 1-383, looked up)
chain: MGLLCSRSRHHTEDTDENTQAAEIERRIEQEAKAEKHIRKLLLLGAGESGKSTIFKQIKLLFQTGFDEGELKSYVPVIHANVYQTIKLLHDGTKEFAQNETDSAKYMLSSESIAIGEKLSEIGGRLDYPRLTKDIAEGIETLWKDPAIQETCARGNELQVPDCTKYLMENLKRLSDINYIPTKEDVLYARVRTTGVVEIQFSPVGENKKSGEVYRLFDVGGQRNERRKWIHLFEGVTAVIFCAAISEYDQTLFEDEQKNRMMETKELFDWVLKQPCFEKTSFMLFLNKFDIFEKKVLDVPLNVCEWFRDYQPVSSGKQEIEHAYEFVKKKFEELYYQNTAPDRVDRVFKIYRTTALDQKLVKKTFKLVDETLRRRNLLEAGLL
